Positions count from the first letter of the chain named. Numbers in names are those of the source. Blank lines part the entries; values can stand above or below the molecule they belong to.
Columns and labels:
[1] = biological target: IGF-1R-His tag (Sino Biological), human insulin-like growth factor 1 receptor (human) (UniProt P08069); assay: BLI (Octet), IGF-1R-His captured on Ni-NTA probe, 1:1 fit
[2] = biological target: T1, human insulin receptor extracellular domain protein (hIRB-ECD, Sino Biological Inc.) (human, UniProt P06213 28-956); assay: ELISA, coated hIRB-ECD, anti-human IgG HRP detection
T1 construct: extracellular domain; Bought protein coated on the ELISA plate

[3] = biological target: T2, human insulin receptor isoform A (hIRA), membranes of CHO cells overexpressing hIRA (human, UniProt P06213-2 28-1370); assay: competition with [125I]-insulin, CHO-hIRA membranes (SPA)
T2 construct: whole, on cells; The assay used cell membrane preparations

[4] = biological target: T3, IGF-1R-His tag (Sino Biological), human insulin-like growth factor 1 receptor (human, UniProt P08069 31-932, limits assumed); assay: BLI (Octet), IGF-1R-His captured on Ni-NTA probe, 1:1 fit
T3 construct: Bought recombinant protein captured on Ni-NTA probes; also called His-tagged IGF-1R protein; not shown: His tag

[5] = biological target: T4, human insulin receptor isoform B (hIRB), membranes of CHO cells overexpressing hIRB (human, UniProt P06213 28-1382); assay: competition with [125I]-insulin, CHO-hIRB membranes (SPA)
T4 construct: whole, on cells; The assay used cell membrane preparations

Molecule: glargine insulin (Lantus, Sanofi) (ligand)
Kd [1]: 764 nM | koff [1]: 0.0192 s⁻¹ | kon [1]: 25100 M⁻¹ s⁻¹

B2: Insulin-Fc fusion protein of Example 1 (B27E+A3-A+A21G) (Fc fusion)
chain: FVNQHLCGSHLVEALYLVCGERGFFYEPKTGGVGGGGIAEQCCTSICSLYQLENYCGGGGGSGGGGSGGGGSGGGGSERKSSVESPPSPAPPVAGPSVFLFPPKPKDTLMISRTPEVTCVVVDVSQEDPEVQFNWYVDGVEVHNAKTKPREEQFNSTFRVVSVLTVLHQDWLNGKEYKCKVSNKGLPSSIEKTISKTKGQPREPQVYTLPPSREEMTKNQVSLTCLVKGFYPSDIAVEWESNGQPENNYKTTPPMLDSDGSFFLYSKLTVDKSRWQQGNVFSCSVMHEALHNHYTQKSLSLSLG
EC50 [2]: 160 nM | IC50 [3]: 102 nM | Maximum Receptor Binding Activity (%) Relative to RHI [3]: 78.7% | Kd [4]: 6490 nM | koff [4]: 0.00336 s⁻¹ | kon [4]: 518 M⁻¹ s⁻¹ | IC50 [5]: 509 nM | Maximum Receptor Binding Activity (%) Relative to RHI [5]: 74.3%

B5: Insulin-Fc fusion protein of Example 7 (B25-T+B27-E A3-A+A21G) (Fc fusion)
chain: B2 chain with F25T
EC50 [2]: 699 nM

Continued by falling EC50 [2], values first:

EC50 [2]: 445 nM
B4: Insulin-Fc fusion protein of Example 6 (B16-A+A3-A+A21G) (Fc fusion)
chain: B2 chain with Y16A, E27T

EC50 [2]: 314 nM
B1: Insulin-Fc fusion protein of Example 8 (des B27-30+A3-A+A21G) (Fc fusion)
chain: FVNQHLCGSHLVEALYLVCGERGFFYGGVGGGGIAEQCCTSICSLYQLENYCGGGGGSGGGGSGGGGSGGGGSERKSSVESPPSPAPPVAGPSVFLFPPKPKDTLMISRTPEVTCVVVDVSQEDPEVQFNWYVDGVEVHNAKTKPREEQFNSTFRVVSVLTVLHQDWLNGKEYKCKVSNKGLPSSIEKTISKTKGQPREPQVYTLPPSREEMTKNQVSLTCLVKGFYPSDIAVEWESNGQPENNYKTTPPMLDSDGSFFLYSKLTVDKSRWQQGNVFSCSVMHEALHNHYTQKSLSLSLG

EC50 [2]: 160 nM
B3: Insulin-Fc fusion protein of Example 5 (B5-A+A21G) (Fc fusion)
chain: B2 chain with H5A, E27T, A39V

From patent publication US20260226131A1 (SHANGHAI INSTITUTE OF MATERIA MEDICA CHINESE ACADEMY OF …, published 2026)
